Assay [1] has as its target T1, human complement C2 zymogen (human, UniProt P06681 21-752).
T1 construct: also called huC2; human C2
T1 sequence: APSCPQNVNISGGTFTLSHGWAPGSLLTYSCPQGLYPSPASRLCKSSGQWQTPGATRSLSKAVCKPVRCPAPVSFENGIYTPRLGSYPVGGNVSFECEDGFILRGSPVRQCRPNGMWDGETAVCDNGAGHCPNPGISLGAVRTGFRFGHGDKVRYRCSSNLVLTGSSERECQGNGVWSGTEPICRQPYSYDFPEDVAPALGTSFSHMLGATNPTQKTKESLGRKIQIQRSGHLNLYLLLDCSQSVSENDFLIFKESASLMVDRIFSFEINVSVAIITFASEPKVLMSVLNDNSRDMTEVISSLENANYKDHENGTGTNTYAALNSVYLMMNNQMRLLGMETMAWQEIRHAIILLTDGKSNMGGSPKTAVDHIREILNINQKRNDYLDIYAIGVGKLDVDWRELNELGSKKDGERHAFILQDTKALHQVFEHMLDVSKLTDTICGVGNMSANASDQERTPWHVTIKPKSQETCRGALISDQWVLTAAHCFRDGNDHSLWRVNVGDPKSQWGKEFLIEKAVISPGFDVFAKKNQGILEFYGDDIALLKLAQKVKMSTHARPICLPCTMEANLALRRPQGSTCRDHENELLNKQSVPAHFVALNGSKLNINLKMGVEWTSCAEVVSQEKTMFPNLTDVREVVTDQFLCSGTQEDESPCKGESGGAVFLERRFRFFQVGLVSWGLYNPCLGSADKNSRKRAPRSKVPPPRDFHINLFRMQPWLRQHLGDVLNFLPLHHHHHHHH
Nature of the assay: SPR kinetics, captured antibody, analyte huC2 200 mM Ca^2+ (so in the source), pH 7.3. Background: In SPR one partner is held on a chip, and binding of the other changes the refractive index at the surface.
Description: (§1) Surface plasmon resonance (SPR, Biacore) was used for all binding affinity analyses. In brief, goat anti-human IgG was directly immobilised onto the carboxymethyl dextran surface of CM5 sensorchips to approximately 12,000 RU using standard NHS/EDC chemistry at pH 5. The immobilised antibody surface was pre-conditioned with ten injections of polyclonal human IgG (Privigen 60 s) prepared at 1 μg/mL. Ligands (anti-C2 mAbs) were captured at the beginning of each cycle as described below. An adjacent spot or flow cell in which only Polyclonal IgG was capture was used as a reference surface. The goat anti-human IgG Fc antibody surface was regenerate in 100 mM H3PO4, injected for 45 seconds at the end of each cycle. Experiments were performed at 37° C. and the flow rate of each experiment was kept constant at 30 μL/min.

Assay [2] addresses T1, human complement C2 zymogen. Nature of the assay: SPR kinetics, captured antibody, analyte huC2 2000 mM Ca^2+ (so in the source), pH 7.3.
Description: as §1
Assay [3] shares this target. Nature of the assay: SPR kinetics, captured antibody, analyte huC2 20 mM Ca^2+ (so in the source), pH 7.3.
Description: as §1
The target is the same in assay [4]. In words: SPR steady state, captured antibody, analyte huC2 20 mM Ca^2+ (so in the source), pH 6.0.
Assay [5] shares this target. In words: SPR kinetics, captured antibody, analyte huC2 (so in the source), pH 7.3.
Description: as §1
For assay [6] the target is unchanged. Nature of the assay: SPR kinetics, captured antibody, analyte huC2 0 mM Ca^2+, pH 7.3.
Description: as §1
Assay [7] shares this target. Nature of the assay: SPR steady state, captured antibody, analyte huC2 2000 mM Ca^2+ (so in the source), pH 6.0.
The target is the same in assay [8]. In words: SPR steady state, captured antibody, analyte huC2 0 mM Ca^2+, pH 6.0.
For assay [9] the target is unchanged. In words: SPR steady state, captured antibody, analyte huC2 200 mM Ca^2+ (so in the source), pH 6.0.
The target of assay [10] is T2, cynomolgus monkey FcRn/β2m (cynomolgus monkey, UniProt Q8SPV9 24-297; Q8SPW0 21-119, limits assumed).
T2 construct: injected in solution over immobilised antibody; also called Cyno FcRn/β2m
Nature of the assay: SPR, immobilised antibody, cyno FcRn/b2m analyte, pH 6.0.
Description: (§2) Anti-C2 mAbs (1 μg/mL at pH 5) were immobilized on a carboxylmethyldextran (CM5) sensorchip surface using standard EDC/NHS chemistry. Human and Cyno FcRn/β2m (40 μM) were prepared in running buffer (10 mM HEPES, 150 mM NaCl, 10 mM MES adjusted to either pH 6 or pH 7.3) and injected on the immobilized anti-C2 surface at concentrations ranging from 0.078 to 40 μM, prepared in two-fold dilutions in running buffer. Association and dissociation phases were monitored for 180 and 600 seconds, respectively. […] Double referenced sensorgrams were fitted to either a 1:1 kinetic model (pH 6), including a term for mass transport limitation or to a 1:1 steady state model (pH 7.3) where responses at the end of the association phase were plotted against respective concentrations.
(§3) Binding to both human and cynomolgus monkey FcRn was tested using the SPR methods described above.

In assay [11] the target is T2, cynomolgus monkey FcRn/β2m. Nature of the assay: SPR, immobilised antibody, cyno FcRn/b2m analyte, pH 7.3.
Description: as §2, §3
The target of assay [12] is T1, human complement C2 zymogen. Nature of the assay: SPR kinetics, captured antibody, analyte huC2 200 mM Ca^2+ (so in the source), pH 7.3. The source holds these as a separate data set.
Description: as §1
(§4) Sensogram data was double-referenced against a reference anti-IgG surface (i.e. minus anti-C2 mAb) and blank buffer injections obtained within each experiment. The binding data was fit to 1:1 (kinetic or steady-state) model using local Rmax and null refraction index (RI=0) when appropriate. Buffers and solutions were filtered (0.22 μm) prior to use.
(§5) Calcium concentrations ranged from zero (i.e. no added calcium, control) to near physiological levels (0.02, 0.2 and 2 mM CaCl₂.2H₂O, MW 147.02 Da).
Assay [13] shares this target. In words: SPR steady state, captured antibody, analyte huC2 2000 mM Ca^2+ (so in the source), pH 6.0. The source holds these as a separate data set.
Description: as §1, §4, §5
Assay [14] shares this target. In words: SPR kinetics, captured antibody, analyte huC2 20 mM Ca^2+ (so in the source), pH 7.3. The source holds these as a separate data set.
Description: as §1, §4, §5
Assay [15] has the same target. Nature of the assay: SPR kinetics, captured antibody, analyte huC2 (so in the source), pH 7.3. The source holds these as a separate data set.
Description: as §1, §4, §5
Assay [16] has the same target. In words: SPR steady state, captured antibody, analyte huC2 0 mM Ca^2+, pH 6.0. This is another data set of the same source.
Description: as §1, §4, §5
The target is the same in assay [17]. In words: SPR kinetics, captured antibody, analyte huC2 0 mM Ca^2+, pH 7.3. This is another data set of the same source.
Description: as §1, §4, §5
Assay [18] shares this target. Nature of the assay: SPR steady state, captured antibody, analyte huC2 20 mM Ca^2+ (so in the source), pH 6.0. This is another data set of the same source.
Description: as §1, §4, §5
Assay [19] shares this target. Nature of the assay: SPR kinetics, captured antibody, analyte huC2 2000 mM Ca^2+ (so in the source), pH 7.3. The source holds these as a separate data set.
Description: as §1, §4, §5
Assay [20] has as its target T2, cynomolgus monkey FcRn/β2m. Nature of the assay: SPR, immobilised antibody, cyno FcRn/b2m analyte, pH 6.0; pH 6.0.
Description: as §2, §3
Assay [21] addresses T1, human complement C2 zymogen. In words: SPR steady state, captured antibody, analyte huC2 200 mM Ca^2+ (so in the source), pH 6.0. The source holds these as a separate data set.
Description: as §1, §4, §5
For assay [22] the target is unchanged. In words: SPR kinetics, captured antibody, analyte huC2 2 mM Ca^2+ (so in the source), pH 7.3.
Description: as §1
For assay [23] the target is unchanged. In words: SPR steady state, captured antibody, analyte huC2 20 mM Ca^2+ (so in the source), pH 6.0. This is another data set of the same source.
For assay [24] the target is unchanged. In words: SPR steady state, captured antibody, analyte huC2 2000 mM Ca^2+ (so in the source), pH 6.0. The source holds these as a separate data set.
The target is the same in assay [25]. Nature of the assay: SPR kinetics, captured antibody, analyte huC2 200 mM Ca^2+ (so in the source), pH 7.3. This is another data set of the same source.
Description: as §1
Assay [26] shares this target. Nature of the assay: SPR kinetics, captured antibody, analyte huC2 0 mM Ca^2+, pH 7.3. The source holds these as a separate data set.
Description: as §1
Assay [27] shares this target. In words: SPR steady state, captured antibody, analyte huC2 200 mM Ca^2+ (so in the source), pH 6.0. The source holds these as a separate data set.
For assay [28] the target is unchanged. In words: SPR steady state, captured antibody, analyte huC2 0 mM Ca^2+, pH 6.0. The source holds these as a separate data set.
For assay [29] the target is unchanged. In words: SPR kinetics, captured antibody, analyte huC2 20 mM Ca^2+ (so in the source), pH 7.3. The source holds these as a separate data set.
Description: as §1
Assay [30] shares this target. Nature of the assay: SPR kinetics, captured antibody, analyte huC2 2000 mM Ca^2+ (so in the source), pH 7.3. This is another data set of the same source.
Description: as §1

Positions count from the first letter of the chain named. Numbers in names are those of the source.

T2 sequence (Q8SPV9 24-297 limits assumed, chain 1 of 2): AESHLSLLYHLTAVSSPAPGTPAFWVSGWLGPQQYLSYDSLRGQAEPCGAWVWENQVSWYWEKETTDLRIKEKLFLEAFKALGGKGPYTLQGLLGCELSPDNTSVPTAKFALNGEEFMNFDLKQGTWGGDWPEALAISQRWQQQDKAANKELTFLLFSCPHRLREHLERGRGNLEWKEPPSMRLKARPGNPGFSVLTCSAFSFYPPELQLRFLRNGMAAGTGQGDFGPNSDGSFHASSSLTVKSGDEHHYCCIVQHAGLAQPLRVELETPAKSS
T2 sequence (Q8SPW0 21-119 limits assumed, chain 2 of 2): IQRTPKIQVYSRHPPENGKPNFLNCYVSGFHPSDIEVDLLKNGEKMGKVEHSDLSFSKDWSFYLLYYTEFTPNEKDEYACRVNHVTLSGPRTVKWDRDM

B1: RF16-226 YEY (Fc mutations M252Y, N286E, N434Y) (antibody, human IgG4 S228P, lambda)
heavy: EVQLVQSGAEVKKPGESLKISCKGSGYSFTSYWIGWVRQMPGKGLEWMGIIYPGDSDTRYSPSFQGQVTISADKSISTAYLQWSSLKASDTAMYYCARRFSYSSGWDMWGQGTLVTVSSASTKGPSVFPLAPCSRSTSESTAALGCLVKDYFPEPVTVSWNSGALTSGVHTFPAVLQSSGLYSLSSVVTVPSSSLGTKTYTCNVDHKPSNTKVDKRVESKYGPPCPPCPAPEFLGGPSVFLFPPKPKDTLYISRTPEVTCVVVDVSQEDPEVQFNWYVDGVEVHEAKTKPREEQFNSTYRVVSVLTVLHQDWLNGKEYKCKVSNKGLPSSIEKTISKAKGQPREPQVYTLPPSQEEMTKNQVSLTCLVKGFYPSDIAVEWESNGQPENNYKTTPPVLDSDGSFFLYSRLTVDKSRWQEGNVFSCSVMHEALHYHYTQKSLSLSLGK
light: SYELTQPPSVSVSPGQTARITCSGDALTSKYVAWYQQKSGLAPLLVIYEDTRRPSGIPAKFSGSSSGSVATLTISGAHGDDEADYYCYSTDASGHQRVFGGGTKLTVLSQPKAAPSVTLFPPSSEELQANKATLVCLISDFYPGAVTVAWKADGSPVKAGVETTKPSKQSNNKYAASSYLSLTPEQWKSHRSYSCQVTHEGSTVEKTVAPTECS
Usually Kd stands for the constant that tells how readily two partners part at equilibrium. Usually koff stands for the rate constant with which the complex falls apart. What is called kon is a measure of how fast the partners come together. Turning to B1, the Kd amounted to 9.2 nM in [1]; 10.7 nM in [2]; 8.8 nM in assay [3]; 81.9 nM in [4]; 8.7 nM in [6]; 105 nM in assay [7]. Further, the Kd was found to be 84 nM in [8], 86.9 nM in [9], 19 nM in [10] and 2200 nM in [11]. Moreover, the koff in [1] was determined as 0.00527 s⁻¹; in assay [2] it was 0.00573 s⁻¹; in [3] it was 0.00516 s⁻¹; in assay [6] it was 0.00521 s⁻¹. In addition, the kon turned out to be 573000 M⁻¹ s⁻¹ in assay [1], 585000 M⁻¹ s⁻¹ in [3], 538000 M⁻¹ s⁻¹ in assay [5] and 601000 M⁻¹ s⁻¹ in assay [6].

B2: RF16-226 YTE (Fc mutations M252Y, S254T, T256E) (antibody, human IgG4 S228P, lambda)
heavy: B1 heavy with S253T, T255E, E285N, Y433N
light: B1 light
For the molecule B2, the Kd in assay [12] was 8.3 nM; in [13] it was 92.8 nM; in [14], 7.9 nM; in [16] it was 74.3 nM; in [17], 8.5 nM; in [18], 71 nM. Moreover, the Kd in [19] came to 9.9 nM; in assay [20], 450 nM; in assay [21], 74.6 nM. Further, the koff stood at 0.00543 s⁻¹ in [12], 0.00521 s⁻¹ in assay [14], 0.00495 s⁻¹ in assay [17] and 0.00592 s⁻¹ in [19]. In addition, the kon turned out to be 653000 M⁻¹ s⁻¹ in assay [12], 657000 M⁻¹ s⁻¹ in assay [14], 601000 M⁻¹ s⁻¹ in assay [15] and 584000 M⁻¹ s⁻¹ in assay [17].

B3: RF16-226 YPY (Fc mutations M252Y, V308P, N434Y) (antibody, human IgG4 S228P, lambda)
heavy: B1 heavy with E285N, V307P
light: B1 light
In the case of B3, the kon worked out at 572000 M⁻¹ s⁻¹ in assay [22], 612000 M⁻¹ s⁻¹ in assay [25], 578000 M⁻¹ s⁻¹ in [26] and 626000 M⁻¹ s⁻¹ in assay [29]. Besides, the Kd was 83.1 nM in assay [23]; 102 nM in assay [24]; 8.8 nM in assay [25]; 8.5 nM in assay [26]; 91.9 nM in [27]; 8.7 nM in assay [10]. Besides, the Kd was 1100 nM in assay [11], 87.3 nM in assay [28], 8.4 nM in assay [29] and 10.2 nM in [30]. Further, the koff in assay [25] turned out to be 0.00539 s⁻¹; in assay [26], 0.00493 s⁻¹; in [29], 0.00526 s⁻¹; in assay [30], 0.00584 s⁻¹.

The values above are taken from patent US20220332804A1 (CSL INNOVATION, published 2022).
